Reference: patent US20200157180A1 (JIANGSU HENGRUI MEDICINE, published 2020)

Key:
human TGF-β1 [1] = molecular target: T1, human TGF-β1 (human, UniProt P01137 279-390); assay: ELISA, coated human TGF-β1 1 µg/ml, anti-human Fc-HRP, OD450
T1 construct: Bought protein
Description: a. 96-well plates were coated with 100 μl/well of human TGF-β1 (8915LC, CST) at a concentration of 1 μg/ml at 4° C. overnight.
d. The wells were washed 3 times with 250 μl 1×PBST, e. 100 μl of Anti-human Fc antibody-HRP (1:4000) was added to each well and incubated for 40 minutes at 37° C.

human TGF-β1 [2] = molecular target: T1, human TGF-β1; assay: cell-based or functional assay
[3] = molecular target: human PD-L1 on CHO/PD-L1 cells (human, UniProt Q9NZQ7 19-290); assay: cell-based or functional assay
Chain of human PD-L1 on CHO/PD-L1 cells (Q9NZQ7 19-290): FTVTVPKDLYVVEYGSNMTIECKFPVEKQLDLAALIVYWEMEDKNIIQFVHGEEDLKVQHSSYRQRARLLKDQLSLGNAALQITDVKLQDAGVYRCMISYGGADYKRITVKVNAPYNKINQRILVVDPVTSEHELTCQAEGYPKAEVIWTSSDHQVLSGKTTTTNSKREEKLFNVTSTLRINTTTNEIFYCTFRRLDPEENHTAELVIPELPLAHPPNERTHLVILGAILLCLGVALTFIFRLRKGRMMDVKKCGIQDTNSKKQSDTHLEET

T1 sequence (P01137 279-390 limits assumed): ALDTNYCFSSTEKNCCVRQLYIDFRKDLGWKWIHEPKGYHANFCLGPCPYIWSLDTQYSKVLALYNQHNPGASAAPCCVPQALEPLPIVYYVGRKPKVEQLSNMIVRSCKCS

B1: PD-L1 antibody (antibody, human IgG4 S228P, kappa, F234A L235A, V domains shown)
VH: QVQLVQSGAEVKKPGASVKVSCKASGYTFTSYWMHWVRQAPGQGLEWMGRIGPNSGFTSYNEKFKNRVTMTRDTSTSTVYMELSSLRSEDTAVYYCARGGSSYDYFDYWGQGTTVTVSS
VL: DIVLTQSPASLAVSPGQRATITCRASESVSIHGTHLMHWYQQKPGQPPKLLIYAASNLESGVPARFSGSGSGTDFTLTINPVEAEDTANYYCQQSFEDPLTFGQGTKLEIKR
notes: Humanized IgG4 with S228P, F234A, L235A; last heavy chain residue K mutated to A; also called anti-PD-L1 antibody; PD-L1 antibody heavy chain: IgG4(AA)(S228P)
Human TGF-β1 [1]
  binding result: no binding (tested: Log(pM) 6 (10^6 pM))
Human TGF-β1 [2]
  IC50, TGFβ-induced pSMAD3 reporter (luciferase) activity in HepG2 cells: > 500 nM
[3]
  EC50 (read off the curve): ~0.3 nM
